Consider 9 molecules from US20250084142A1 (INTARCIA THERAPEUTICS, published 2025).

First the molecules themselves.
T1: NPY5R
T1 sequence (Q15761 1-445, species assumed, looked up): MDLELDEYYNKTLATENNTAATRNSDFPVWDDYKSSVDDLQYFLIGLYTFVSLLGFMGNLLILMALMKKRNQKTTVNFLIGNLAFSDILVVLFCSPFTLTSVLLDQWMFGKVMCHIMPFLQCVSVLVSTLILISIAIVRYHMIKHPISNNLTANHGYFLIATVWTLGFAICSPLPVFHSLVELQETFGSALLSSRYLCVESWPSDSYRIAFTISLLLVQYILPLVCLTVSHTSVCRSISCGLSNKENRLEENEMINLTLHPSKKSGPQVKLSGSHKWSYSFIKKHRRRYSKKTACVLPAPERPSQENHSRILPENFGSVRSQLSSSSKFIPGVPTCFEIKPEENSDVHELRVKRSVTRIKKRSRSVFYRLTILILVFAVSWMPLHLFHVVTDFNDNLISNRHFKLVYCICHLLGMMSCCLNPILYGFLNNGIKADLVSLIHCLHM

T2: NPY2R
T2 sequence (P49146 1-381, species assumed, looked up): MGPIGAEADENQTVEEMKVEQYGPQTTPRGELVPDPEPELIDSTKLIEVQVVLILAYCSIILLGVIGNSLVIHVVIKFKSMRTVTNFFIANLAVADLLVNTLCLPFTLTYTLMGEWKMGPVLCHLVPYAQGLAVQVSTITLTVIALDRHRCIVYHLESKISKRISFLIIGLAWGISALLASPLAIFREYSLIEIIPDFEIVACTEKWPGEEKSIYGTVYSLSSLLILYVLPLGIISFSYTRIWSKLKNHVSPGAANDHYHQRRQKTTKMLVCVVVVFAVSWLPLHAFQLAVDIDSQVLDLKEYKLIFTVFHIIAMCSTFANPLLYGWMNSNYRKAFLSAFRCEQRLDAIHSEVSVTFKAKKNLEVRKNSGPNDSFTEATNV

B1: Compound A51 (peptide)
peptide: PKPEAPGKDASPEEWNRYYADLRHYLK([γGlu-γGlu-C20 diacid])WLTRQRF-NH2
modifications: N-terminus assumed
SMILES: CC(C)C[C@H](NC(=O)[C@H](CC(=O)O)NC(=O)[C@H](C)NC(=O)[C@H](Cc1ccc(O)cc1)NC(=O)[C@H](Cc1ccc(O)cc1)NC(=O)[C@H](CCCNC(=N)N)NC(=O)[C@H](CC(N)=O)NC(=O)[C@H](Cc1c[nH]c2ccccc12)NC(=O)[C@H](CCC(=O)O)NC(=O)[C@H](CCC(=O)O)NC(=O)[C@@H]1CCCN1C(=O)[C@H](CO)NC(=O)[C@H](C)NC(=O)[C@H](CC(=O)O)NC(=O)[C@H](CCCCN)NC(=O)CNC(=O)[C@@H]1CCCN1C(=O)[C@H](C)NC(=O)[C@H](CCC(=O)O)NC(=O)[C@@H]1CCCN1C(=O)[C@H](CCCCN)NC(=O)[C@@H]1CCCN1)C(=O)N[C@@H](CCCNC(=N)N)C(=O)N[C@@H](Cc1c[nH]cn1)C(=O)N[C@@H](Cc1ccc(O)cc1)C(=O)N[C@@H](CC(C)C)C(=O)N[C@@H](CCCCNC(=O)CC[C@H](NC(=O)CC[C@H](NC(=O)CCCCCCCCCCCCCCCCCCC(=O)O)C(=O)O)C(=O)O)C(=O)N[C@@H](Cc1c[nH]c2ccccc12)C(=O)N[C@@H](CC(C)C)C(=O)N[C@H](C(=O)N[C@@H](CCCNC(=N)N)C(=O)N[C@@H](CCC(N)=O)C(=O)N[C@@H](CCCNC(=N)N)C(=O)N[C@@H](Cc1ccccc1)C(N)=O)[C@@H](C)O
B2: Compound A52 (peptide)
peptide: PKPEAPGKDASPEEWNRYYADLRHK([γGlu-γGlu-C20 diacid])LNWLTRQRF-NH2
modifications: N-terminus assumed
SMILES: CC(C)C[C@H](NC(=O)[C@H](CC(=O)O)NC(=O)[C@H](C)NC(=O)[C@H](Cc1ccc(O)cc1)NC(=O)[C@H](Cc1ccc(O)cc1)NC(=O)[C@H](CCCNC(=N)N)NC(=O)[C@H](CC(N)=O)NC(=O)[C@H](Cc1c[nH]c2ccccc12)NC(=O)[C@H](CCC(=O)O)NC(=O)[C@H](CCC(=O)O)NC(=O)[C@@H]1CCCN1C(=O)[C@H](CO)NC(=O)[C@H](C)NC(=O)[C@H](CC(=O)O)NC(=O)[C@H](CCCCN)NC(=O)CNC(=O)[C@@H]1CCCN1C(=O)[C@H](C)NC(=O)[C@H](CCC(=O)O)NC(=O)[C@@H]1CCCN1C(=O)[C@H](CCCCN)NC(=O)[C@@H]1CCCN1)C(=O)N[C@@H](CCCNC(=N)N)C(=O)N[C@@H](Cc1c[nH]cn1)C(=O)N[C@@H](CCCCNC(=O)CC[C@H](NC(=O)CC[C@H](NC(=O)CCCCCCCCCCCCCCCCCCC(=O)O)C(=O)O)C(=O)O)C(=O)N[C@@H](CC(C)C)C(=O)N[C@@H](CC(N)=O)C(=O)N[C@@H](Cc1c[nH]c2ccccc12)C(=O)N[C@@H](CC(C)C)C(=O)N[C@H](C(=O)N[C@@H](CCCNC(=N)N)C(=O)N[C@@H](CCC(N)=O)C(=O)N[C@@H](CCCNC(=N)N)C(=O)N[C@@H](Cc1ccccc1)C(N)=O)[C@@H](C)O
B3: Compound A37 (peptide)
peptide: PKPEK([γGlu-γGlu-C20 diacid])PGKDASPKEWNRYYKDLRHYLNWLTRQRF-NH2
modifications: N-terminus assumed
SMILES: CC(C)C[C@H](NC(=O)[C@H](CC(=O)O)NC(=O)[C@H](CCCCN)NC(=O)[C@H](Cc1ccc(O)cc1)NC(=O)[C@H](Cc1ccc(O)cc1)NC(=O)[C@H](CCCNC(=N)N)NC(=O)[C@H](CC(N)=O)NC(=O)[C@H](Cc1c[nH]c2ccccc12)NC(=O)[C@H](CCC(=O)O)NC(=O)[C@H](CCCCN)NC(=O)[C@@H]1CCCN1C(=O)[C@H](CO)NC(=O)[C@H](C)NC(=O)[C@H](CC(=O)O)NC(=O)[C@H](CCCCN)NC(=O)CNC(=O)[C@@H]1CCCN1C(=O)[C@H](CCCCNC(=O)CC[C@H](NC(=O)CC[C@H](NC(=O)CCCCCCCCCCCCCCCCCCC(=O)O)C(=O)O)C(=O)O)NC(=O)[C@H](CCC(=O)O)NC(=O)[C@@H]1CCCN1C(=O)[C@H](CCCCN)NC(=O)[C@@H]1CCCN1)C(=O)N[C@@H](CCCNC(=N)N)C(=O)N[C@@H](Cc1c[nH]cn1)C(=O)N[C@@H](Cc1ccc(O)cc1)C(=O)N[C@@H](CC(C)C)C(=O)N[C@@H](CC(N)=O)C(=O)N[C@@H](Cc1c[nH]c2ccccc12)C(=O)N[C@@H](CC(C)C)C(=O)N[C@H](C(=O)N[C@@H](CCCNC(=N)N)C(=O)N[C@@H](CCC(N)=O)C(=O)N[C@@H](CCCNC(=N)N)C(=O)N[C@@H](Cc1ccccc1)C(N)=O)[C@@H](C)O
B4: Compound A75 (peptide)
peptide: PKPEKPGK([γGlu-γGlu-C20 diacid])DASPEEWSRYYKDLRHYLNWLTRQRF-NH2
modifications: N-terminus assumed
SMILES: CC(C)C[C@H](NC(=O)[C@H](CC(=O)O)NC(=O)[C@H](CCCCN)NC(=O)[C@H](Cc1ccc(O)cc1)NC(=O)[C@H](Cc1ccc(O)cc1)NC(=O)[C@H](CCCNC(=N)N)NC(=O)[C@H](CO)NC(=O)[C@H](Cc1c[nH]c2ccccc12)NC(=O)[C@H](CCC(=O)O)NC(=O)[C@H](CCC(=O)O)NC(=O)[C@@H]1CCCN1C(=O)[C@H](CO)NC(=O)[C@H](C)NC(=O)[C@H](CC(=O)O)NC(=O)[C@H](CCCCNC(=O)CC[C@H](NC(=O)CC[C@H](NC(=O)CCCCCCCCCCCCCCCCCCC(=O)O)C(=O)O)C(=O)O)NC(=O)CNC(=O)[C@@H]1CCCN1C(=O)[C@H](CCCCN)NC(=O)[C@H](CCC(=O)O)NC(=O)[C@@H]1CCCN1C(=O)[C@H](CCCCN)NC(=O)[C@@H]1CCCN1)C(=O)N[C@@H](CCCNC(=N)N)C(=O)N[C@@H](Cc1c[nH]cn1)C(=O)N[C@@H](Cc1ccc(O)cc1)C(=O)N[C@@H](CC(C)C)C(=O)N[C@@H](CC(N)=O)C(=O)N[C@@H](Cc1c[nH]c2ccccc12)C(=O)N[C@@H](CC(C)C)C(=O)N[C@H](C(=O)N[C@@H](CCCNC(=N)N)C(=O)N[C@@H](CCC(N)=O)C(=O)N[C@@H](CCCNC(=N)N)C(=O)N[C@@H](Cc1ccccc1)C(N)=O)[C@@H](C)O
B5: Compound A50 (peptide)
peptide: PKPEAPGKDASPEEWNRYYADLRHYLNWLTRK([γGlu-γGlu-C20 diacid])RF-NH2
modifications: N-terminus assumed
SMILES: CC(C)C[C@H](NC(=O)[C@H](CC(=O)O)NC(=O)[C@H](C)NC(=O)[C@H](Cc1ccc(O)cc1)NC(=O)[C@H](Cc1ccc(O)cc1)NC(=O)[C@H](CCCNC(=N)N)NC(=O)[C@H](CC(N)=O)NC(=O)[C@H](Cc1c[nH]c2ccccc12)NC(=O)[C@H](CCC(=O)O)NC(=O)[C@H](CCC(=O)O)NC(=O)[C@@H]1CCCN1C(=O)[C@H](CO)NC(=O)[C@H](C)NC(=O)[C@H](CC(=O)O)NC(=O)[C@H](CCCCN)NC(=O)CNC(=O)[C@@H]1CCCN1C(=O)[C@H](C)NC(=O)[C@H](CCC(=O)O)NC(=O)[C@@H]1CCCN1C(=O)[C@H](CCCCN)NC(=O)[C@@H]1CCCN1)C(=O)N[C@@H](CCCNC(=N)N)C(=O)N[C@@H](Cc1c[nH]cn1)C(=O)N[C@@H](Cc1ccc(O)cc1)C(=O)N[C@@H](CC(C)C)C(=O)N[C@@H](CC(N)=O)C(=O)N[C@@H](Cc1c[nH]c2ccccc12)C(=O)N[C@@H](CC(C)C)C(=O)N[C@H](C(=O)N[C@@H](CCCNC(=N)N)C(=O)N[C@@H](CCCCNC(=O)CC[C@H](NC(=O)CC[C@H](NC(=O)CCCCCCCCCCCCCCCCCCC(=O)O)C(=O)O)C(=O)O)C(=O)N[C@@H](CCCNC(=N)N)C(=O)N[C@@H](Cc1ccccc1)C(N)=O)[C@@H](C)O

Starred links: 1 amine or outer side, 2 acyl side, 3 side chain; linkers in the order of their positions; H or OH if unused. Positions of bridges follow the written chain, without caps; N, C: chain ends. Groups on a side chain read outwards from the residue. No end group written: not given here. *: point of attachment. C20 diacid = O=C(O)CCCCCCCCCCCCCCCCCCC(=O)*; γGlu = O=C(O)[C@H](CCC(=O)[*:2])N[*:1]

One test deals with T1, NPY5R. The test can be described thus: cell-based or functional assay.
For the molecule PKPEAPGK([γGlu-γGlu-C20 diacid])DASPEEWKRYYDDLRHYLNWLTRQRF-NH2 (lactam 16-20) [Compound A44], the “NPY5R pEC50” value is 9.2 -Log(EC50, M).
On the same count and under the same terms, then B1, with 6 -Log(EC50, M).
Turning to B2, the “NPY5R pEC50” value is 8 -Log(EC50, M).
For the molecule PKPEAPGK([γGlu-γGlu-C20 diacid])DASPEEWERYYKDLRHYLNWLTRQRF-NH2 (lactam 16-20) [Compound A41], the “NPY5R pEC50” value was 9.3 -Log(EC50, M).
Take B3: the “NPY5R pEC50” value was 8.6 -Log(EC50, M).
As to PKPEAPGK([γGlu-γGlu-C20 diacid])DASPEEWDRYYKDLRHYLNWLTRQRF-NH2 (lactam 16-20) [Compound A42], the “NPY5R pEC50” value was 9.1 -Log(EC50, M).
Regarding B4, the “NPY5R pEC50” value was 9.3 -Log(EC50, M).
B5: the “NPY5R pEC50” value was 6 -Log(EC50, M).
As for PKPEAPGK([γGlu-γGlu-C20 diacid])DASPEEWKRYYEDLRHYLNWLTRQRF-NH2 (lactam 16-20) [Compound A43], the “NPY5R pEC50” value is 8.5 -Log(EC50, M).

Another test concerns the target T2, NPY2R. The test can be described thus: cell-based or functional assay.
PKPEAPGK([γGlu-γGlu-C20 diacid])DASPEEWKRYYDDLRHYLNWLTRQRF-NH2 (lactam 16-20) [Compound A44]: the “NPY2R pEC50” value was 9.7 -Log(EC50, M).
For B1, the “NPY2R pEC50” value was 6 -Log(EC50, M).
Take B2: the “NPY2R pEC50” value is 8.4 -Log(EC50, M).
As to PKPEAPGK([γGlu-γGlu-C20 diacid])DASPEEWERYYKDLRHYLNWLTRQRF-NH2 (lactam 16-20) [Compound A41], the “NPY2R pEC50” value was 10.5 -Log(EC50, M).
As for B3, the “NPY2R pEC50” value is 10.8 -Log(EC50, M).
Same read-out and setting: as for PKPEAPGK([γGlu-γGlu-C20 diacid])DASPEEWDRYYKDLRHYLNWLTRQRF-NH2 (lactam 16-20) [Compound A42], the figure is 10.3 -Log(EC50, M).
Take B5: the “NPY2R pEC50” value is 6 -Log(EC50, M).
The same measure, in the same setting: as for PKPEAPGK([γGlu-γGlu-C20 diacid])DASPEEWKRYYEDLRHYLNWLTRQRF-NH2 (lactam 16-20) [Compound A43], the figure is 10.5 -Log(EC50, M).
